Biological target: syntaxin1 (mouse (endogenous in brain synaptosomes)) (UniProt O35526)
Test: co-IP; synaptosomes from wt, ASMko (7 months; also 1 month) or wt+Se mice, equal protein; 150 mM NaCl, 0.5% sodium deoxycholate, 1% NP40; syntaxin1 monoclonal antibody 4 h at 4°C, protein G sepharose beads overnight at 4°C; Western blot for syntaxin1, Munc18, SNAP25 and Vamp2

UniProt O35526, sequence (O35526 whole entry): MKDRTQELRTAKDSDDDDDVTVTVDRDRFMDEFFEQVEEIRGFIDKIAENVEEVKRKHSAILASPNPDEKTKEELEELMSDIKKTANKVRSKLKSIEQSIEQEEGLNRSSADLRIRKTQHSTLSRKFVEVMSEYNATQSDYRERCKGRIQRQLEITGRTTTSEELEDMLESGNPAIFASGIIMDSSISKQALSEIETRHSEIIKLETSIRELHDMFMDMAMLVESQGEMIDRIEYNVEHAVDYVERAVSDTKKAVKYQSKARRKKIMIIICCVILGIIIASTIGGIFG

fold change of Munc18 co-precipitated with syntaxin1, ASMko versus wt synaptosomes: 1.9 fold
Substance: Munc18 (from UniProt O08599 1-594) (natural protein)

From PMC2668795
